Experimental data reported in US20240076386A1 (Pfizer, published 2024).

Key:
[1] = target: T1, recombinant histidine-tagged human E-selectin (Sino Biologicals; 13025-H08H) (human, UniProt P16581 22-556); assay: direct binding ELISA, soluble recombinant protein
T1 construct: also called recombinant human E-selectin; soluble recombinant human E-selectin
T1 sequence (looked up): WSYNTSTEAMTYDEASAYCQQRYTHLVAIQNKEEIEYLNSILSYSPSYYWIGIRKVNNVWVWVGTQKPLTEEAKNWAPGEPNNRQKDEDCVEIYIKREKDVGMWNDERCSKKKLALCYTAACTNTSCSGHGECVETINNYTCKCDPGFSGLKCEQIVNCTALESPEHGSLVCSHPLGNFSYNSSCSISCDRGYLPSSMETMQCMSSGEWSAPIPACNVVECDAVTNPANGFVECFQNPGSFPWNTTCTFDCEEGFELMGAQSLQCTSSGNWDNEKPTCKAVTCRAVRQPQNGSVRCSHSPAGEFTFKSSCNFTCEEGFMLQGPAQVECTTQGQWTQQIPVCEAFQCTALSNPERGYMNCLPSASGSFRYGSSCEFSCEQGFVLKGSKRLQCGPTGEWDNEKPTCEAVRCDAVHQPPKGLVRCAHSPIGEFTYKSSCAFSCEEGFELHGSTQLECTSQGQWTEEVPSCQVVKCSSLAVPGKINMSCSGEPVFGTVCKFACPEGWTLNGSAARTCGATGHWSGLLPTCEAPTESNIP
Description: (§1) Recombinant histidine tagged human P-, E- or L-selectin (Sino Biologicals), mouse E-selectin (Sino Biologicals), rat E-selectin (Sino Biologicals) and Cynomolgus monkey E-selectin (Sino Biologicals) stock solutions were prepared to a final concentration of 1 μg/mL in phosphate buffered saline without calcium and magnesium. Controls included an L-selectin directed antibody (BioLegend; 304811) or P-selectin directed antibody or a negative control IgG. One hundred μL per well of the diluted recombinant selectin proteins were added into a Ni-NTA HisSorb 96 well plate (Qiagen; 35061). Plates were incubated on an orbital shaker at room temperature for 2 hours. Following the incubation, the plates were washed 3 times with 200 μL of wash buffer (50 mM TRIS [trisaminomethane]; 150 mM sodium chloride; 0.05% polysorbate 20, pH 7.4). […] Anti L-selectin and anti-rat-E-selectin antibodies were detected using 1 to 25000 dilution of Peroxidase-conjugated AffiniPure Goat Anti-Mouse IgG (H+L); (Jackson ImnnunoResearch Lab).
(§2) Plates were washed and 100 μL per well of 1-Step Ultra TMB substrate (Thermo Scientific) was added and incubated for 5 minutes at room temperature. Reactions were stopped with 100 μL of 2 M sulfuric acid and absorbance read at 450 nm (Spectramax M5e).

[2] = target: T2, recombinant histidine-tagged cynomolgus monkey E-selectin (Sino Biologicals; 190169-C08H) (cynomolgus monkey, UniProt A0A2K5U7H9 22-554); assay: direct binding ELISA, soluble recombinant protein
T2 construct: also called recombinant cynomolgus monkey E-selectin
T2 sequence: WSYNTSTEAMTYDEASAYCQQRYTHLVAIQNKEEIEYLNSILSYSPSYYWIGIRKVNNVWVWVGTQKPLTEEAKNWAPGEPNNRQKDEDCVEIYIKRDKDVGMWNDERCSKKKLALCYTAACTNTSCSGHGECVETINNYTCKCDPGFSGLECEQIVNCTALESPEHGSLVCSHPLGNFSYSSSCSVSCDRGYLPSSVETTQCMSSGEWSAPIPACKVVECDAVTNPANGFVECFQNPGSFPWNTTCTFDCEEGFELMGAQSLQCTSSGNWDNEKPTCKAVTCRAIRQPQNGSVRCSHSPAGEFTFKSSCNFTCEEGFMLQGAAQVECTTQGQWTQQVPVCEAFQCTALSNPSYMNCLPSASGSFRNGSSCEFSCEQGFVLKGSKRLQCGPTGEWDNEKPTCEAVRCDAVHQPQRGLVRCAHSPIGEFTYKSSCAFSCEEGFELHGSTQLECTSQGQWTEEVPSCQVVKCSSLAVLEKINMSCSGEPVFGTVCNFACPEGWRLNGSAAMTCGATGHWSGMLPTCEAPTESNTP
Description: as §1, §2

[3] = target: T3, cynomolgus monkey E-selectin, cell-surface expressed (cynomolgus monkey, UniProt P16581 22-610 (human entry)); assay: competition ELISA on CHO cells vs sialyl Lewis ligand, further assays
T3 construct: also called CHO-cynomolgus monkey E-selectin cells; cynomolgus monkey CHO-E
T3 chain: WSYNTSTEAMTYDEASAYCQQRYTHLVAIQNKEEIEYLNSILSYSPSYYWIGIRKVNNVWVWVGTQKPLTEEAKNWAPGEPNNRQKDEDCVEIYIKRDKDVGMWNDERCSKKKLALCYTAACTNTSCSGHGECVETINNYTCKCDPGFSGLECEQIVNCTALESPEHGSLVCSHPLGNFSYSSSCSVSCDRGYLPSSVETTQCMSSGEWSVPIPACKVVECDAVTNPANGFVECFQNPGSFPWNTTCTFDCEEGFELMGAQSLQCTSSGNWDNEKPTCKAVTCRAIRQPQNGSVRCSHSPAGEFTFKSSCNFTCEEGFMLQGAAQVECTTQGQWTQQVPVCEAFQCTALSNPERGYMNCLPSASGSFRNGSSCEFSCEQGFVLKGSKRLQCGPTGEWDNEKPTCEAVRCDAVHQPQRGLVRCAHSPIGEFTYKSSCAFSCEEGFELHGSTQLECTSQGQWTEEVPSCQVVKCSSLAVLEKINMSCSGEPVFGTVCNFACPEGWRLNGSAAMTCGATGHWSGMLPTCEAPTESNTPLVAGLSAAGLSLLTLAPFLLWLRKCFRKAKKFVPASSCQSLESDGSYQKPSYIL
Description: CHO cells expressing E-selectin were seeded at 12,500 cells per well into a 96 well tissue culture plate and incubated at 37° C., 5% CO₂ for 48 hours to form a confluent monolayer. Plates were subsequently washed twice with 200 μL of calcium magnesium free PBS. Anti-E-selectin antibodies or an IgG1 isotype control (IgG control) were added to the assay in the presence of a small synthetic conjugate of biotinylated, sialyl Lewis A polyacrylamide (Carbosynth LLC, OS45446) or sialyl Lewis X polyacrylamide (Glycotech, 01-045) with streptavidin/horseradish peroxidase (100 μL total) and incubated at 37° C., 5% CO₂ for 2 hours. Plates were then washed twice with 200 μL of calcium and magnesium free PBS. Following the incubation, the cells were washed twice with 200 μL of wash buffer containing 2 mM of calcium chloride (50 mM TRIS [trisaminomethane], 150 mM sodium chloride; 0.05% polysorbate 20, pH 7.4; 2 mM calcium chloride). Signal was developed by adding 100 μL of 1-Step Ultra TMB substrate (Thermo Scientific, 34028) and incubating for 30 minutes at room temperature. Reactions were stopped using 2 M of sulfuric acid and absorbance was read at 450 nm (Spectramax M5e). Data were analyzed and graphed using GraphPad Prism software (Version 8.0.2).

EC50 [1]: 0.085 to 0.12 nM
EC50 [2]: 0.071 to 0.093 nM
IC50 [3]: 1.49 nM
B1: optimized anti-E-selectin antibody 1444 (antibody, human IgG1, kappa, V domains shown)
VH: EVQLVESGGGLVQPGGSLRLSCAASGYAIRSAYMHWVRQAPGKGLEWVARIDPANGNTIYVDSVTGRFTISADNAKNSAYLQMNSLRAEDTAVYYCAMDLYSTSEYWGQGTLVTVSS
VL: DIQMTQSPSSLSASVGDRVTITCKTSQNIERYLNWYQQKPGKAPKLLIYAASSLQSGVPSRFSGSGSGTDFTLTISSLQPEDFATYFCLQDNAWPLTFGQGTKVEIKR
notes: effector-null human IgG1, kappa
